This note sets out measurements from publication doi:10.1101/2020.07.29.226720v1 (biorxiv, 2020).

The target of one data set is T1, AthPEPCK1 WT (Arabidopsis thaliana, UniProt Q9T074).
T1 sequence (Q9T074 2-671): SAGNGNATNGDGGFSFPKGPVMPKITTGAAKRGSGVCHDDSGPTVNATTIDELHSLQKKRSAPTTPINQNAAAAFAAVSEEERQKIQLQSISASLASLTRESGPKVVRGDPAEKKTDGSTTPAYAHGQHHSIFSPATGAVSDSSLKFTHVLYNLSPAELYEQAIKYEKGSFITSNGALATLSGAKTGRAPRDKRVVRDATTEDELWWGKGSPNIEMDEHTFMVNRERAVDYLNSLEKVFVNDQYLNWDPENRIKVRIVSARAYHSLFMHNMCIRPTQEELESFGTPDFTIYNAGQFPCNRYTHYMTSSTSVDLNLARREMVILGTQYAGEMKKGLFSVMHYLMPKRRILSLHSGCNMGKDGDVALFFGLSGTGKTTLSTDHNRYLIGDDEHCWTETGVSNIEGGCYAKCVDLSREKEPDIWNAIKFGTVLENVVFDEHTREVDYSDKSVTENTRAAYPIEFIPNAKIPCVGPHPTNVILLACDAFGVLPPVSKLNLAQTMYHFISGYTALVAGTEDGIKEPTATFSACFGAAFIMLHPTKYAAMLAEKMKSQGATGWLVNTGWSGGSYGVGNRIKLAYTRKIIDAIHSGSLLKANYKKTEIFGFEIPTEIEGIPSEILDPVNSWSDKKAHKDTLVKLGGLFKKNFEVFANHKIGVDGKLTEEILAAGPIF
Briefly: activity with effector, carboxylation direction. The class given is biochemical. The conditions noted are these: allosteric activator; 10 mM PEP, 0.13 mM ADP.

In a further data set the target is T2, AthPEPCK1 Δ101 (Arabidopsis thaliana, UniProt Q9T074).
T2 sequence (Q9T074 102-671): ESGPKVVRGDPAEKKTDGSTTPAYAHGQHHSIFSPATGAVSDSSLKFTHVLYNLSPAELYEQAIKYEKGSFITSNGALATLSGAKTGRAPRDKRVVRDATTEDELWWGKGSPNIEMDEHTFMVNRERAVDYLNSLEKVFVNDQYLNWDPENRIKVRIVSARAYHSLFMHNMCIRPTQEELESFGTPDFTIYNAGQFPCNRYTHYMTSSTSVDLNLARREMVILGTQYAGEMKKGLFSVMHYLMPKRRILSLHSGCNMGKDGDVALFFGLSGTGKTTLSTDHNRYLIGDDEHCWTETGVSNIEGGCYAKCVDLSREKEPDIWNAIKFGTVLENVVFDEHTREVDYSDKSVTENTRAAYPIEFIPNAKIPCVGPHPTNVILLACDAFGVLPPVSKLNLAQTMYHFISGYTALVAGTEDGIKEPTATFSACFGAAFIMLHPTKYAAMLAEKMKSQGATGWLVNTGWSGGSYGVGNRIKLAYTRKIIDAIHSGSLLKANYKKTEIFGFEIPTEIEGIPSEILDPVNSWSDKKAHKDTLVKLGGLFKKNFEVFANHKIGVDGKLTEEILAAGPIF
Briefly: activity with effector, decarboxylation direction. The class given is biochemical. The conditions noted are these: allosteric activator; 0.5 mM OAA, 0.3 mM ATP.

Substrate in data set [1]: Nc1ncnc2c1ncn2[C@@H]1O[C@H](COP(=O)(O)OP(=O)(O)O)[C@@H](O)[C@H]1O
Nature of the data set: steady-state kinetics, carboxylation direction. The class given is biochemical, Arabidopsis thaliana.

Substrate in the data set “purified protein”: Nc1ncnc2c1ncn2[C@@H]1O[C@H](COP(=O)(O)OP(=O)(O)OP(=O)(O)O)[C@@H](O)[C@H]1O
Nature of the data set: purified protein. Conditions: 0.5 mM OAA.

In turn, `O=C(O)C[C@H](O)C(=O)O` [malate] displayed a fold activation on AthPEPCK1 WT of 2 fold.

On AthPEPCK1 Δ101, `O=P(O)(O)OC[C@H]1OC(O)[C@H](O)[C@@H](O)[C@@H]1O` (stereo partly shown) [Glc6P] yielded a fold activation of 2 fold.

B1: AthPEPCK1 Δ101 (Arabidopsis thaliana) (protein)
chain: T2 sequence (Q9T074 102-671)
Regarding B1, the Km came to 57 ± 6 µM in data set [1] (15 mM PEP) and 80 ± 10 µM in “purified protein”. Further, the figures for the kcat (in data set [1] (15 mM PEP); in the data set “purified protein”) were 3.01 ± 0.08 s⁻¹ and 3.9 ± 0.2 s⁻¹, respectively.

B2: AthPEPCK1 Δ19 (Arabidopsis thaliana) (protein)
chain: GPVMPKITTGAAKRGSGVCHDDSGPTVNATTIDELHSLQKKRSAPTTPINQNAAAAFAAVSEEERQKIQLQSISASLASLTRESGPKVVRGDPAEKKTDGSTTPAYAHGQHHSIFSPATGAVSDSSLKFTHVLYNLSPAELYEQAIKYEKGSFITSNGALATLSGAKTGRAPRDKRVVRDATTEDELWWGKGSPNIEMDEHTFMVNRERAVDYLNSLEKVFVNDQYLNWDPENRIKVRIVSARAYHSLFMHNMCIRPTQEELESFGTPDFTIYNAGQFPCNRYTHYMTSSTSVDLNLARREMVILGTQYAGEMKKGLFSVMHYLMPKRRILSLHSGCNMGKDGDVALFFGLSGTGKTTLSTDHNRYLIGDDEHCWTETGVSNIEGGCYAKCVDLSREKEPDIWNAIKFGTVLENVVFDEHTREVDYSDKSVTENTRAAYPIEFIPNAKIPCVGPHPTNVILLACDAFGVLPPVSKLNLAQTMYHFISGYTALVAGTEDGIKEPTATFSACFGAAFIMLHPTKYAAMLAEKMKSQGATGWLVNTGWSGGSYGVGNRIKLAYTRKIIDAIHSGSLLKANYKKTEIFGFEIPTEIEGIPSEILDPVNSWSDKKAHKDTLVKLGGLFKKNFEVFANHKIGVDGKLTEEILAAGPIF
In the case of B2, in data set [1] (5 mM PEP), the Km was determined as 40 ± 1 µM and the turnover number (kcat) was 2.64 ± 0.06 s⁻¹. Besides, in “purified protein”, the Km amounted to 29 ± 6 µM and the turnover number (kcat) was found to be 3.38 ± 0.06 s⁻¹.

For orientation: Km means the concentration of substrate that gives half-maximal velocity. The kcat is the maximal rate divided by the concentration of active sites.
